Assay results published in patent US8759300.

Molecular target: platelet-derived growth factor-BB (PDGF-BB) (human) (UniProt P01127)
Experiment: equilibrium binding

platelet-derived growth factor-BB (PDGF-BB) (human), sequence (P01127 82-190 limits assumed): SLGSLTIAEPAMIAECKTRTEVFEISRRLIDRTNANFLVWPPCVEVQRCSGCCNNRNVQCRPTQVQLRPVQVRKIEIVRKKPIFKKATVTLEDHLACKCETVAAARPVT

| Kd | Binder |
| --- | --- |
| 250 nM | QPSHISKYILRWRPKNSVGRWKEAT [peptide 1 (FN634-658) …] |

Molecular target: transforming growth factor-β1 (TGF-β1) (human) (UniProt P01137)
Experiment: equilibrium binding

transforming growth factor-β1 (TGF-β1) (human), sequence (P01137 279-390 limits assumed): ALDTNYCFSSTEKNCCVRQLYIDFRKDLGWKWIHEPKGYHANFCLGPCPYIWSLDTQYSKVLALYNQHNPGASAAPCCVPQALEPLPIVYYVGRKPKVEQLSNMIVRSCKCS

| Binder | Kd |
| --- | --- |
| QPSHISKYILRWRPK [peptide 1A (FN634-648) …] | 440 nM |
| QPSVGQQMIFEEHGFRRTTPPTTAT [peptide 4 (FN2043-2067) …] | 100 nM |
| ILRWRPKNSVGRWK [peptide 1B …] | 400 nM |

Now from value to binder:

| Kd | Binder |
| --- | --- |
| 130 nM | QPSHISKYILRWRPKNSVGRWKEAT [peptide 1 (FN634-658) …] |
| 270 nM | QLISIQQYGHQEVTRFDFTTTSTST [peptide 2 (FN680-704) …] |
| 140 nM | NGQTPIQRTIKPDVRSYTITGLQPGT [peptide 3 …] |

Molecular target: platelet-derived growth factor-BB (PDGF-BB) (human) (UniProt P01127)
Experiment: peptide binding to PDGF-BB

| Kd | Binder |
| --- | --- |
| 340 nM | WNAPQPSHISKYILRWRPK [FN630-648 …] |
| 450 nM | QPSHISKYILRWRPK [peptide 1A (FN634-648) …] |
| 250 nM | QPSHISKYILRWRPKNSVGRWKEAT [peptide 1 (FN634-658) …] |
| 110 nM | QLISIQQYGHQEVTRFDFTTTSTST [peptide 2 (FN680-704) …] |

Molecular target: platelet-derived growth factor-BB (PDGF-BB) (human) (UniProt P01127)
Experiment: method not restated (same value as FN634-648 in paragraph 247)

| Kd | Binder |
| --- | --- |
| 450 nM | QPSHISKYILRWRPK [peptide 1A (FN634-648) …] |
